Experimental data reported in article PMC3631186.

Key:
[1] = molecular target: C-terminal domain (CTD) of BMJ4 p24 (HIV-1 strain BMJ4 (subtype C)); assay: non-reducing SDS-PAGE; C-terminal domain of BMJ4 p24 in non-reducing condition
[2] = molecular target: p24 of HIV-1 MJ4 virus (from the infectious clone) (HIV-1 strain BMJ4 (subtype C)); assay: non-reducing SDS-PAGE
[3] = molecular target: HIV-1 p24 capsid protein from the BMJ4 strain (recombinant, full-length) (HIV-1 strain BMJ4 (subtype C)); assay: AUC; sedimentation velocity, 0.9 mg/ml in phosphate-buffered saline pH 7.4, 20°C, 45,000 rpm; c(s) scaled to c(M)
[4] = molecular target: HIV-1 p24 capsid protein from the BMJ4 strain (recombinant, full-length) (HIV-1 strain BMJ4 (subtype C)); assay: non-reducing SDS-PAGE; recombinant p24 proteins; loading buffer with 0.1% SDS, no BME, sample not boiled; called native gel in the text
[5] = molecular target: HIV-1 p24 capsid protein from the BMJ4 strain (recombinant, full-length) (HIV-1 strain BMJ4 (subtype C)); assay: crystal structure
[6] = molecular target: HIV-1 p24 capsid protein from the BMJ4 strain (recombinant, full-length) (HIV-1 strain BMJ4 (subtype C)); assay: SEC; analytic gel filtration, G5000PWxl column in phosphate-buffered saline pH 7.4, 0.5 ml/min, Agilent1200 HPLC

In the case of “C-terminal domain (CTD) of BMJ4 p24 (domain or fragment)”, the stoichiometry N [1] is reported as 2.
“p24 of HIV-1 MJ4 virus (from the infectious clone) (natural protein)” showed a stoichiometry N [2] of 2.
“HIV-1 p24 capsid protein from the BMJ4 strain (recombinant, full-length) (natural protein)” was tested, and the stoichiometry N [3] was 2, the stoichiometry N [4] was 2 and the stoichiometry N [5] was 2. The stoichiometry N [6] was 2.
